Data as given in patent US20140371152A1 (DOSHISHA, published 2014).

Molecular target: T1, Amyloid β 1-9 polypeptide corresponding to the N-terminal region of βCTF
T1 construct: Screening target and KD partner
Test: dissociation constant against the Amyloid β 1-9 peptide; method not stated

B1: #4 polypeptide (peptide)
peptide: Ac-MHLVICDCYCTTDICYCYSCTPN-NH2
modifications: cysteine pairing not given here
notes: Synthetic peptide found by screening against Amyloid β 1-9; used dissolved in DMSO; also called peptide name #4
B1 showed a Kd of 2620 nM.
